In FireProtDB (doi:10.1021/bi961660c) one finds unfolding free energy data, which are given here for one protein.

Values joined by “and” are separate entries in the source; they are usually repeats but may differ in a detail not shown here. Identical values can stand only once.

The conditions of the data set: Escherichia coli (strain K12), pH 7, 25 °C, GdnHCl, CD, Tris-HCl 20 mM, reversible: yes, whole UniProt chain shown.

B1: Tryptophan synthase alpha chain wild type, P0A877 (protein)
chain: MERYESLFAQLKERKEGAFVPFVTLGDPGIEQSLKIIDTLIEAGADALELGIPFSDPLADGPTIQNATLRAFAAGVTPAQCFEMLALIRQKHPTIPIGLLMYANLVFNKGIDEFYAQCEKVGVDSVLVADVPVEESAPFRQAALRHNVAPIFICPPNADDDLLRQIASYGRGYTYLLSRAGVTGAENRAALPLNHLVAKLKEYNAAPPLQGFGISAPDQVKAAIDAGAAGAISGSAIVKIIEQHINEPEKMLAALKVFVQPMKAATRS
Turning to B1, the unfolding free energy is 8.21 kcal/mol. Where the note is “transition: 3”, the unfolding free energy is 4.23 kcal/mol and 4 kcal/mol.
